Measured values: patent US20170015742A1 (published 2017)

T1: recombinant cynomolgus PDGF-BB (cynomolgus monkey, UniProt P01127 82-190 (human entry), limits assumed)
T1 chain: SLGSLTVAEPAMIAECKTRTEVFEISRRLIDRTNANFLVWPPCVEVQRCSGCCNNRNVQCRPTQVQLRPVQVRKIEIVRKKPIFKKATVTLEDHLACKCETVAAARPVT

B1: 4G8.3-SL-9E8.4 DVD-Ig (PR-1564012) (bispecific antibody, human IgG1, kappa, L234A L235A)
heavy: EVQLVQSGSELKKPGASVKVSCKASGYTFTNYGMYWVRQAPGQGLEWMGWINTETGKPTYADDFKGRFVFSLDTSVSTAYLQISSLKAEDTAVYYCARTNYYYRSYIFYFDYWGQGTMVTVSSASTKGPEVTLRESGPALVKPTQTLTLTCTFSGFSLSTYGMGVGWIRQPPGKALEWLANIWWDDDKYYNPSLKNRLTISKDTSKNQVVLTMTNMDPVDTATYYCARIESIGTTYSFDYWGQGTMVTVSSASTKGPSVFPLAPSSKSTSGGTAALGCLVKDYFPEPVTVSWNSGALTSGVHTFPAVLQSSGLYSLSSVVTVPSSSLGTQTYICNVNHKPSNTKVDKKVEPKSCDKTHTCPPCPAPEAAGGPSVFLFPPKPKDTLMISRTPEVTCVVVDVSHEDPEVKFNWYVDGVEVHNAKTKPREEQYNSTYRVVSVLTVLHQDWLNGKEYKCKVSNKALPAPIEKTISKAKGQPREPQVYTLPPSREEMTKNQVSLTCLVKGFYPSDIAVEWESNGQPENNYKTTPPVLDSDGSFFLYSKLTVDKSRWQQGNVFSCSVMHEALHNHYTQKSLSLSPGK
light: DTVLTQSPATLSLSPGERATLSCRASESVSTHMHWYQQKPGQAPRLLIYGASNLESGVPARFSGSGSGTDFTLTISSLEPEDFAVYFCQQSWNDPFTFGQGTKLEIKRTVAAPSVFIFPPEFVLTQSPGTLSLSPGERATLSCERSSGDIGDSYVSWYQQKPGQAPRLVIYADDQRPSGIPDRFSGSGSGTDFTLTISRLEPEDFAVYYCQSYDINIDIVFGGGTKVEIKGTVAAPSVFIFPPSDEQLKSGTASVVCLLNNFYPREAKVQWKVDNALQSGNSQESVTEQDSKDSTYSLSSTLTLSKADYEKHKVYACEVTHQGLSSPVTKSFNRGEC
notes: DVD-Ig, outer hBDB-4G8.3 (VEGF), inner hBDI-9E8.4 (PDGF); IgG1 L234A, L235A / kappa
B2: 4G8.3-LS-9E8.4 DVD-Ig (PR-1564013) (bispecific antibody, human IgG1, kappa, L234A L235A)
heavy: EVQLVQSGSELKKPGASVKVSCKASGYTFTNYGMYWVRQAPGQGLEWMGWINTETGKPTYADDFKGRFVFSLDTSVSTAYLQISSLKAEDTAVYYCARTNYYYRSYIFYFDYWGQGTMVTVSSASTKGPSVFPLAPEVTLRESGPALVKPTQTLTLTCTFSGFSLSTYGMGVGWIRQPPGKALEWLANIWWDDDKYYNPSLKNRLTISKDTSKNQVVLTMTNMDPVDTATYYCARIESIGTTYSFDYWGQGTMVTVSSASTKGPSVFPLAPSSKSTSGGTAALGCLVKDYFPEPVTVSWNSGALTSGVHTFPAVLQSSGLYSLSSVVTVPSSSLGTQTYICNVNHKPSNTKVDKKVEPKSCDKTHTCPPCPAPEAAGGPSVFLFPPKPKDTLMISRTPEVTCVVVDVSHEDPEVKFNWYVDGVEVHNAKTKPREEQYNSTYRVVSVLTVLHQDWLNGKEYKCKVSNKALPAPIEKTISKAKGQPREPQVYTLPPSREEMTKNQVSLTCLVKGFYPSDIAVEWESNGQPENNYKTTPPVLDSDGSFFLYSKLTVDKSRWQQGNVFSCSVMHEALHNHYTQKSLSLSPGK
light: DTVLTQSPATLSLSPGERATLSCRASESVSTHMHWYQQKPGQAPRLLIYGASNLESGVPARFSGSGSGTDFTLTISSLEPEDFAVYFCQQSWNDPFTFGQGTKLEIKRTVAAPEFVLTQSPGTLSLSPGERATLSCERSSGDIGDSYVSWYQQKPGQAPRLVIYADDQRPSGIPDRFSGSGSGTDFTLTISRLEPEDFAVYYCQSYDINIDIVFGGGTKVEIKGTVAAPSVFIFPPSDEQLKSGTASVVCLLNNFYPREAKVQWKVDNALQSGNSQESVTEQDSKDSTYSLSSTLTLSKADYEKHKVYACEVTHQGLSSPVTKSFNRGEC
notes: as for B1
B3: 4G8.3-GS-9E8.4 DVD-Ig (PR-1564010) (bispecific antibody, human IgG1, kappa, L234A L235A)
heavy: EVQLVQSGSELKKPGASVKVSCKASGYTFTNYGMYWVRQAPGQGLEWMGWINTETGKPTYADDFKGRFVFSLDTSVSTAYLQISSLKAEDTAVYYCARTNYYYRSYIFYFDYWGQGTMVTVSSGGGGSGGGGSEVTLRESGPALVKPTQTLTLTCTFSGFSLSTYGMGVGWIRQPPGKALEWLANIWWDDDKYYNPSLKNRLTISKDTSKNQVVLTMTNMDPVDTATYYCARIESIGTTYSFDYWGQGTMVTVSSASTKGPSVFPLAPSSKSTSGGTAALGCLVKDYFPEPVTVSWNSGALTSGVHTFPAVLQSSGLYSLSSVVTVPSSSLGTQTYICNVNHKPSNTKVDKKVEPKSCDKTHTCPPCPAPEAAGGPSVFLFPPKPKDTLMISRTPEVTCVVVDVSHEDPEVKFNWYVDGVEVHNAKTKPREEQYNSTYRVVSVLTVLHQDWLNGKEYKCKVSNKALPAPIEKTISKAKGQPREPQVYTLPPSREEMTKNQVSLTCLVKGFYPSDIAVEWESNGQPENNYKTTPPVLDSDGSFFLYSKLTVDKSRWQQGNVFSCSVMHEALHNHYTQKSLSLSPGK
light: DTVLTQSPATLSLSPGERATLSCRASESVSTHMHWYQQKPGQAPRLLIYGASNLESGVPARFSGSGSGTDFTLTISSLEPEDFAVYFCQQSWNDPFTFGQGTKLEIKRGGSGGGGSGEFVLTQSPGTLSLSPGERATLSCERSSGDIGDSYVSWYQQKPGQAPRLVIYADDQRPSGIPDRFSGSGSGTDFTLTISRLEPEDFAVYYCQSYDINIDIVFGGGTKVEIKGTVAAPSVFIFPPSDEQLKSGTASVVCLLNNFYPREAKVQWKVDNALQSGNSQESVTEQDSKDSTYSLSSTLTLSKADYEKHKVYACEVTHQGLSSPVTKSFNRGEC
notes: as for B1
B4: 9E10.1_GS_CL-33675 anti-VEGF-A/anti-PDGF-BB DVD-Ig (PR-1610561) (bispecific antibody, human IgG1, kappa, L234A L235A)
heavy: EIQLVQSGSELKKPGASVKVSCKASGYTFTNYGMYWVKQAPGQGLEYMGWIDTETGRPTYADDFKGRFVFSLDTSVSTAYLQISSLKAEDTAVYFCARWSGDTTGIRGPWFAYWGQGTLVTVSSGGGGSGGGGSEVTLRESGPALVKPTQTLTLTCTFSGFSLSTYGMGVGWIRQPPGKALEWLANIWWDDDKYYNPSLKNRLTISKDTSKNQVVLTMTNMDPVDTATYYCARIESSGPKYSFDYWGQGTMVTVSSASTKGPSVFPLAPSSKSTSGGTAALGCLVKDYFPEPVTVSWNSGALTSGVHTFPAVLQSSGLYSLSSVVTVPSSSLGTQTYICNVNHKPSNTKVDKKVEPKSCDKTHTCPPCPAPEAAGGPSVFLFPPKPKDTLMISRTPEVTCVVVDVSHEDPEVKFNWYVDGVEVHNAKTKPREEQYNSTYRVVSVLTVLHQDWLNGKEYKCKVSNKALPAPIEKTISKAKGQPREPQVYTLPPSREEMTKNQVSLTCLVKGFYPSDIAVEWESNGQPENNYKTTPPVLDSDGSFFLYSKLTVDKSRWQQGNVFSCSVMHEALHNAYTQKSLSLSPGK
light: DIRMTQSPSSLSASVGDRVTIECLASEDIYSDLAWYQQKPGKSPKLLIYNANGLQNGVPSRFSGSGSGTDYSLTISSLQPEDVATYFCQQYNYFPGTFGQGTKLEIKGGSGGGGSGGEIVLTQSPGTLSLSPGERATLSCRASSGSIWYSFVSWYQQKPGQAPRLLIYADDQRASGIPDRFSGSGSGTDFTLTISRLEPEDFAVYYCQSYGINIDVVFGGGTKVEIKRTVAAPSVFIFPPSDEQLKSGTASVVCLLNNFYPREAKVQWKVDNALQSGNSQESVTEQDSKDSTYSLSSTLTLSKADYEKHKVYACEVTHQGLSSPVTKSFNRGEC

Columns and labels:
[1] = biological target: T2, recombinant human VEGF165 (human, UniProt P15692 207-395); assay: competition ELISA: DVD-Ig titrated against biotinylated hVEGF165 binding to coated hVEGFR2-Fc
T2 construct: also called hVEGF165; huVEGF-A165
Protocol: To identify molecules that could block the binding of hVEGF₁₆₅ to the hVEGF-R2 (KDR/Flk-1) receptor, a competition ELISA was performed. […] Plates were then washed four times with wash buffer (TBS, 0.05% Tween-20) and blocked with Superblock blocking buffer (Thermo Scientific, cat#37535). […] The pre-incubated sample/hVEGF₁₆₅ complex was added to the coated plate at 50 μL in duplicate and incubated for 30 minutes at 25° C. with shaking. Following incubation, plates were washed four times with wash buffer. Streptavidin-polyHRP-40 (Fitzgerald cal#65r-s104phrp) was diluted in assay diluent (10% Superblock containing 0.05% surfactamps) and added to plates (50 μL) for 45 minutes at 25° C. with shaking. Plates were washed four times with wash buffer and developed with the addition of Enhanced K-blue TMB substrate (Neogen cat#308177). The reaction was stopped with 2N sulfuric acid (VWR, cat# BDH3500-1) and the absorbance was read at 450 nm-570 nm. A decrease in observed optical density indicates the test molecule is blocking the hVEGF₁₆₅ binding to the hVEGF-R2-Fc. Data was analyzed using Softmax Pro 4.8 software and IC₅₀ values calculated using a sigmoidal dose response (variable slope) fit in GraphPad Prism 5.

[2] = biological target: recombinant human PDGF-BB (human, UniProt P01127 82-190); assay: cell-based or functional assay
[3] = biological target: T2, recombinant human VEGF165; assay: cell-based or functional assay
[4] = biological target: recombinant human PDGF-BB (human, UniProt P01127 82-190); assay: cell-based or functional assay; remark: listed apart in the source
[5] = biological target: recombinant murine PDGF-BB (mouse, UniProt P31240 82-190); assay: cell-based or functional assay
recombinant rat PDGF-BB = recombinant rat PDGF-BB (rat, UniProt Q05028 74-182); assay: cell-based or functional assay
[6] = biological target: T1, recombinant cynomolgus PDGF-BB; assay: cell-based or functional assay

T2 sequence (P15692 other isoform, or with tags, fused parts or gaps limits assumed): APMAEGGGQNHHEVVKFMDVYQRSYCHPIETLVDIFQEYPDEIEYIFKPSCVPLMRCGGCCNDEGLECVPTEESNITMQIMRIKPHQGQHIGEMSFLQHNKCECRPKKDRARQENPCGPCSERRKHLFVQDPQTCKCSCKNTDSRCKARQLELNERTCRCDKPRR
recombinant rat PDGF-BB, sequence (Q05028 74-182 limits assumed): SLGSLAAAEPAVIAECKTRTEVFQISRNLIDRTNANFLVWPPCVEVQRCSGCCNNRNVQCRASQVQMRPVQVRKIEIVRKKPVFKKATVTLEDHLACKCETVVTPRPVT
recombinant murine PDGF-BB, sequence (P31240 82-190 limits assumed): as the sequence (Q05028 74-182 limits assumed) above, with V83I, V102I counted along it

IC50 [1] [nM]	NIH-3T3 hPDGF-BB Potency IC50 [2] [nM]	HMVEC-d hVEGF165 Potency IC50 [3] [nM]	Co-incubation Potency IC50 (nM) hPDGF-BB (NIH-3T3 proliferation, DVD-Ig pre-incubated with excess hVEGF165) [4] [nM]	Potency IC50 (nM) mPDGF-BB (NIH-3T3 proliferation) [5] [nM]	Potency IC50 (nM) ratPDGF-BB (NIH-3T3 proliferation) (recombinant rat PDGF-BB) [nM]	Potency IC50 (nM) cynoPDGF-BB (NIH-3T3 proliferation) [6] [nM]	Binder
0.086	0.365	–	–	–	–	–	B1
0.092	0.152	0.06	–	–	–	–	B2
0.126	–	0.096	–	–	–	–	B3
–	–	–	0.04	0.032	0.038	0.035	B4
